T1: corticotropin-releasing hormone (CRH) peptide (human and mouse (same sequence), not fully specified)
T1 peptide: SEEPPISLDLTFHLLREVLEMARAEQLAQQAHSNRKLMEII

T2: biotinylated CRH (human and mouse, not fully specified; biotinylated, position not stated)
T2 construct: also called Biotin-CRH; biotin-labeled CRH
T2 peptide: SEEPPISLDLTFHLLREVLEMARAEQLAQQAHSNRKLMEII

B1: PR302341-43 (antibody, human IgG1, kappa, V domains shown)
VH: QVQLVQSGAEVKKPGASVKVSCKASGYTFTDYFMKWVRQAPGQGLEWMGVINPNNADIFYNQKFKGRVTMTVDKSTSTAYMELSSLRSEDTAVYYCARGTDRALFAYWGQGTLVTVSS
VL: DVVMTQTPLSSPVTLGQPASISCRSGQSIVHSDGNTYLEWYQQRPGQPPRLLIYKVSNRFSGVPDRFSGSGAGTDFTLKISRVEAEDLGVYYCFQGSHIPWTFGGGTKVEIKR
B2: PR302341-46 (antibody, human IgG1, kappa, V domains shown)
VH: QVQLVQSGAEVKKPGASVKVSCKASGYTFTDYFMKWVRQAPGQGLEWMGVINPNNADIFYNQKFKGRVTMTVDKSTSTAYMELSSLRSEDTAVYYCARGTDRALFAYWGQGTLVTVSS
VL: DVVMTQTPLSSPVTLGQPASISCRSGQSIVHSDANTYLEWYQQRPGQPPRLLIYKVSNRFSGVPDRFSGSGAGTDFTLKISRVEAEDLGVYYCFQGSHIPWTFGGGTKVEIKR
B3: PR302341-44 (antibody, human IgG1, kappa, V domains shown)
VH: QVQLVQSGAEVKKPGASVKVSCKASGYTFTDYFMKWVRQAPGQGLEWMGVINPNSGDIFYNQKFKGRVTMTVDKSTSTAYMELSSLRSEDTAVYYCARGTDRALFAYWGQGTLVTVSS
VL: DVVMTQTPLSSPVTLGQPASISCRSGQSIVHSDGNTYLEWYQQRPGQPPRLLIYKVSNRFSGVPDRFSGSGAGTDFTLKISRVEAEDLGVYYCFQGSHIPWTFGGGTKVEIKR
B4: PR302341-45 (antibody, human IgG1, kappa, V domains shown)
VH: QVQLVQSGAEVKKPGASVKVSCKASGYTFTDYFMKWVRQAPGQGLEWMGVINPNQGDIFYNQKFKGRVTMTVDKSTSTAYMELSSLRSEDTAVYYCARGTDRALFAYWGQGTLVTVSS
VL: DVVMTQTPLSSPVTLGQPASISCRSGQSIVHSDGNTYLEWYQQRPGQPPRLLIYKVSNRFSGVPDRFSGSGAGTDFTLKISRVEAEDLGVYYCFQGSHIPWTFGGGTKVEIKR
B5: PR006153 (antibody, human IgG1, kappa, V domains shown)
VH: EVQLVESGGVLVQPGGSLRLSCAASGFTFSSYWMTWVRQAPGKGLEWVANIKQDSSEKYYVDSVKGRFTISRDNAKNSLFLQMNSLRAEDTAVYYCARTLIFDYWGQGTLVTVSS
VL: DIVMTQSPLSLPVTPGEPASISCRSSQSLLHSTGYSSLEWYLQKPGQSPQLLIYLGSNRASGVPDRFSGSGSGTDFTLKISRVEAEDVGIYYCMQTLQTPITFGQGTRLEIKR
notes: PTM-removal variant of PR004290
B6: PR302309 (antibody, human IgG1, kappa, V domains shown)
VH: QIQLVQSGPELKKPGETVKISCKASGYTFTNYGMNWVKQAPGKVLKWMGWINTYTGEPIYTDDFKGRFAFSLETSASTAYLQINNLKNEDTATYFCSRSTMITTGGVFAYWGQGTLVTVSA
VL: DVLMAQTPLSLPVSLGDQASISCRSSQTIVHSDGNTYLEWYLQKPGQSPKLLIYKVSNRFSGVPDRFSGSGSGTDFTLKISRVEAEDLGVYYCFQGSHVPWTFGGGTKLEIKR
notes: Series 7; mouse variable domains with human IgG1 wildtype Fc
B7: PR302334-10 (antibody, human IgG1, kappa, V domains shown)
VH: EVQLVESGGGLVQPGGSLRLSCAASGFTFSTYAMSWVRQAPGKGLEWVASIRSGGTTYYPDSVKGRFTISRDNSKNTLYLQMNSLRAEDTAVYYCTRGIDWGQGTTVTVSS
VL: DIVMTQSPDSLAVSLGERATINCKASQSVNNDVAWYQQKPGQPPRLLIYYASNRYTGVPDRFSGSGSGTDFTLTISSLQAEDLAVYFCQQDYSSWTFGGGTKVEIKR
notes: Humanized variant of PR302334
B8: PR302334-27 (antibody, human IgG1, kappa, V domains shown)
VH: EVQLVESGGGLVQPGGSLRLSCAASGFTFSTYAMSWVRQAPGKGLEWVASIRSGGTTYYPDSVKGRFTISRDNSKNSLYLQMNSLRAEDTAVYYCTRGIDWGQGTTVTVSS
VL: DIQMTQSSLSASVSLGDRVTITCKASQSVNNDVAWYQQKPGKAPRLLIYYASNRYTGVPSRFSGSGSGTDFTFTISSLQPEDLATYFCQQDYSSWTFGGGTKVEIKR
notes: Humanized variant of PR302334
B9: PR302334-11 (antibody, human IgG1, kappa, V domains shown)
VH: EVQLVESGGGLVQPGGSLRLSCAASGFTFSTYAMSWVRQAPGKGLEWVASIRSGGTTYYPDSVKGRFTISRDNSKNTLYLQMNSLRAEDTAVYYCTRGIDWGQGTTVTVSS
VL: DIQMTQSSLSASVSLGDRVTITCKASQSVNNDVAWYQQKPGKAPRLLIYYASNRYTGVPSRFSGSGSGTDFTFTISSLQPEDIATYYCQQDYSSWTFGGGTKVEIKR
notes: Humanized variant of PR302334
B10: PR302334-25 (antibody, human IgG1, kappa, V domains shown)
VH: EVQLVESGGGLVKPGGSLRLSCAASGFTFSTYAMSWVRQAPGKGLEWVASIRSGGTTYYPDSVKGRFTISRDNAKNSLYLQMNSLRAEDTAVYYCTRGIDWGQGTTVTVSS
VL: DIQMTQSSLSASVSLGDRVTITCKASQSVNNDVAWYQQKPGKAPRLLIYYASNRYTGVPSRFSGSGSGTDFTFTISSLQPEDLATYFCQQDYSSWTFGGGTKVEIKR
notes: Humanized variant of PR302334
B11: PR302334-8 (antibody, human IgG1, kappa, V domains shown)
VH: EVQLVESGGGLVQPGGSLRLSCAASGFTFSTYAMSWVRQAPGKGLEWVASIRSGGTTYYPDSVKGRFTISRDNSKNTLYLQMNSLRAEDTAVYYCTRGIDWGQGTTVTVSS
VL: EIVMTQSPATLSVSPGERATLSCKASQSVNNDVAWYQQKPGQAPRLLIYYASNRYTGIPARFSGSGSGTEFTLTISSLQSEDLAVYFCQQDYSSWTFGGGTKVEIKR
notes: Humanized variant of PR302334
B12: PR302334-24 (antibody, human IgG1, kappa, V domains shown)
VH: EVQLVESGGGLVKPGGSLRLSCAASGFTFSTYAMSWVRQAPGKGLEWVASIRSGGTTYYPDSVKGRFTISRDNAKNSLYLQMNSLRAEDTAVYYCTRGIDWGQGTTVTVSS
VL: DIVMTQSPDSLAVSLGERATINCKASQSVNNDVAWYQQKPGQPPRLLIYYASNRYTGVPDRFSGSGSGTDFTLTISSLQAEDLAVYFCQQDYSSWTFGGGTKVEIKR
notes: Humanized variant of PR302334
B13: PR006669 (antibody, human IgG1, kappa, V domains shown)
VH: EVQLVESGGGLVQPGGSLRLSCAASGFTFSDNWMSWVRQAPGKGLEWVANIKQDGSENYYVDSVKGRFTISRDNAKNSLYLQMNSLRAEDTAVYYCSRGLALWGWGQGTLVTVSS
VL: DIVMTHSPLSLPVTPGDPASISCRSSQSLLHSTGYNYLDWYLQKPGQSPQLLIYLGSNRASGVPDRFSGSGSGTDFTLKFIRVEAEDVGVYYCMQALQTPYTFGQGTKLEIKR
notes: Series 2; human IgG1 wildtype Fc; also called Hybridoma Clone 52g7
B14: PR006746 (antibody, human IgG1, kappa, V domains shown)
VH: EVQLVESGGGLVQPGGSLRLSCAASGFTFSDNWMSWVRQAPGKGLEWVANIKQDSSENYYVDSVKGRFTISRDNAKNSLYLQMNSLRAEDTAVYYCSRGLALWGWGQGTLVTVSS
VL: DIVMTHSPLSLPVTPGDPASISCRSSQSLLHSTGYNYLDWYLQKPGQSPQLLIYLGSNRASGVPDRFSGSGSGTDFTLKFIRVEAEDVGVYYCMQALQTPYTFGQGTKLEIKR
notes: PTM-removal variant of PR006669
B15: PR301777 (antibody, human IgG1, kappa, V domains shown)
VH: EMKLEESGGGLVQPGGSMKLSCVASGFTFSNYWMNWVRQSPEKGLEWVAEIRLKSNNYATHYAESVKGRFTISRDDSKSGVYLQMNNLGAEDTGIYYCTVGTLVYWGQGTLVTVSA
VL: DIVLTQSPASLAVSLGQRATISCRASQSVSTSTYNYMHWFQQKPGQPPKLLIKFASNLESGVPARFSGSGSGTDFTLNIHPVEEEDTATFYCQHSWEIPYTFGGGTKLEIKR
notes: Series 5; mouse variable domains with human IgG1 wildtype Fc

Target: T1, corticotropin-releasing hormone (CRH) …
Test: cell-based or functional assay

Point of comparison: B3, “hCRHR1 Luciferase Reporter Assay IC50” value 0.646 nM. Against it:
- B1 — within 1.5-fold, 0.512 nM
- B2 — 2-fold higher, 1.27 nM
- B4 — 1.8-fold lower, 0.35 nM

Point of comparison: B2, “mCrhr1 Luciferase Reporter Assay IC50” value 1.52 nM. Against it:
- B1 — within 1.5-fold, 1.37 nM
- B4 — within 1.5-fold, 1.83 nM

Target: T2, biotinylated CRH
Test: Octet BLI, biotinylated CRH on SA sensor
Experimental: Octet® Red 96e was used for affinity measurement. Octet® running buffer was prepared by diluting kinetics buffer 10× (Fortebio, Cat #18-1105) in PBS according to the manufacturer's instructions. Two columns of SA sensors (Fortebio, Cat #18-5019) were hydrated in running buffer for 10 mins, one for ligand capturing and the other for reference. Antibodies were 2-fold diluted and added into a 96-well plate. […] After a 60-second baseline step, sensors were dipped into analyte and buffer wells successively, with the association and dissociation time of 180 seconds and 800 seconds, respectively. […] Signals of reference wells and reference sensors were subtracted by selecting “Double reference” before data fitting.

Point of comparison: B15, Kd 0.00124 nM. Against it:
- B5 — 140-fold higher, 0.171 nM
- B6 — 12-fold higher, 0.0153 nM
- B7 — lower, < 0.001 nM
- B8 — lower, < 0.001 nM
- B9 — lower, < 0.001 nM
- B10 — lower, < 0.001 nM
- B11 — lower, < 0.001 nM
- B12 — lower, < 0.001 nM
- B13 — 97-fold higher, 0.12 nM
- B14 — 61-fold higher, 0.0751 nM

Point of comparison: B6, koff 4.03e-06 s⁻¹. Against it:
- B5 — 21-fold higher, 8.36e-05 s⁻¹
- B7 — lower, < 1e-07 s⁻¹
- B8 — lower, < 1e-07 s⁻¹
- B9 — lower, < 1e-07 s⁻¹
- B10 — lower, < 1e-07 s⁻¹
- B11 — lower, < 1e-07 s⁻¹
- B12 — lower, < 1e-07 s⁻¹
- B14 — 22-fold higher, 8.69e-05 s⁻¹

Point of comparison: B10, kon 285000 M⁻¹ s⁻¹. Against it:
- B5 — 1.7-fold higher, 487000 M⁻¹ s⁻¹
- B6 — within 1.5-fold, 263000 M⁻¹ s⁻¹
- B7 — 42-fold lower, 6840 M⁻¹ s⁻¹
- B8 — within 1.5-fold, 302000 M⁻¹ s⁻¹
- B9 — 2.4-fold higher, 684000 M⁻¹ s⁻¹
- B11 — 19-fold lower, 14700 M⁻¹ s⁻¹
- B12 — 2.1-fold higher, 606000 M⁻¹ s⁻¹
- B14 — 4.1-fold higher, 1.16e+06 M⁻¹ s⁻¹

Reference: US20260042834A1 (HBM ALPHA THERAPEUTICS, published 2026)
